Data published in PMC8998655, “Effect of Betaine and Arginine on Interaction of αB-Crystallin with Glycogen Phosphorylase b” (International Journal of Molecular Sciences, 2022).

B1: αB-crystallin (natural protein, human, UniProt P02511 1-175, looked up)
chain: MDIAIHHPWIRRPFFPFHSPSRLFDQFFGEHLLESDLFPTSTSLSPFYLRPPSFLRAPSWFDTGLSEMRLEKDRFSVNLDVKHFSPEELKVKVLGDVIEVHGKHEERQDEHGFISREFHRKYRIPADVDPLTITSSLSSDGVLTVNGPRKQVSGPERTIPITREEKPAVTAAPKK
notes: αB-crystallin (HspB5), human; Polydisperse oligomer (about 40-mer at 48 °C without additives, about 24-mer with 300 mM betaine); also called HspB5; source: E. coli (pET23 vector), purified (salting out with ammonium sulfate, gel filtration)
B2: glycogen phosphorylase b (enzyme, rabbit, UniProt P00489 1-843, looked up)
chain: MSRPLSDQEKRKQISVRGLAGVENVTELKKNFNRHLHFTLVKDRNVATPRDYYFALAHTVRDHLVGRWIRTQQHYYEKDPKRIYYLSLEFYMGRTLQNTMVNLALENACDEATYQLGLDMEELEEIEEDAGLGNGGLGRLAACFLDSMATLGLAAYGYGIRYEFGIFNQKICGGWQMEEADDWLRYGNPWEKARPEFTLPVHFYGRVEHTSQGAKWVDTQVVLAMPYDTPVPGYRNNVVNTMRLWSAKAPNDFNLKDFNVGGYIQAVLDRNLAENISRVLYPNDNFFEGKELRLKQEYFVVAATLQDIIRRFKSSKFGCRDPVRTNFDAFPDKVAIQLNDTHPSLAIPELMRVLVDLERLDWDKAWEVTVKTCAYTNHTVLPEALERWPVHLLETLLPRHLQIIYEINQRFLNRVAAAFPGDVDRLRRMSLVEEGAVKRINMAHLCIAGSHAVNGVARIHSEILKKTIFKDFYELEPHKFQNKTNGITPRRWLVLCNPGLAEIIAERIGEEYISDLDQLRKLLSYVDDEAFIRDVAKVKQENKLKFAAYLEREYKVHINPNSLFDVQVKRIHEYKRQLLNCLHVITLYNRIKKEPNKFVVPRTVMIGGKAAPGYHMAKMIIKLITAIGDVVNHDPVVGDRLRVIFLENYRVSLAEKVIPAADLSEQISTAGTEASGTGNMKFMLNGALTIGTMDGANVEMAEEAGEENFFIFGMRVEDVDRLDQRGYNAQEYYDRIPELRQIIEQLSSGFFSPKQPDLFKDIVNMLMHHDRFKVFADYEEYVKCQERVSALYKNPREWTRMVIRNIATSGKFSSDRTIAQYAREIWGVEPSRQRLPAPDEKIP
notes: glycogen phosphorylase b (muscle form), rabbit skeletal muscle; In all experiments the protein was heated at 48 °C, so it was partly unfolded (unfolded monomer and partly unfolded dimer); also called Phb; source: purified from rabbit skeletal muscle

Assays:
[1] = target: the molecule itself; assay: AUC + other: dynamic light scattering; sedimentation velocity at 48 °C, αB-Cr 0.2 mg/mL, 0.03 M Hepes pH 6.8, ionic strength 0.15 M, no additive; mass by the Svedberg equation with s from AUC and D from DLS; major peak 20.4 S
[2] = target: the molecule itself; assay: AUC + other: dynamic light scattering; sedimentation velocity at 48 °C, αB-Cr 0.2 mg/mL, 0.03 M Hepes pH 6.8, ionic strength 0.15 M, with 300 mM betaine; mass by the Svedberg equation with s from AUC and D from DLS; major peak 16.5 S
[3] = target: the molecule itself; assay: AUC; sedimentation velocity at 48 °C, Phb 0.4 mg/mL alone (also with 500 mM betaine), 0.03 M Hepes pH 6.8, ionic strength 0.15 M, 48,000 rpm

Row | Protein | stoichiometry N [1] | stoichiometry N [2] | stoichiometry N [3]
1 | B1 | 40 | ~24 | –
2 | B2 | – | – | 2
